# Data: paper PMC2581630, “S-Nitrosylation of Surfactant Protein-D Controls Inflammatory Function” (PLoS Biology, 2008)
# Assays:
# [1] = target: SNO-SP-D in BAL from mice overexpressing SP-D, after treatment with S-nitrosocysteine (not stated (in BAL of SP-D overexpressing mice)) (UniProt P50404); experiment: SEC; BAL from SP-D overexpressing mice with or without SNOC, 0.75 mg total protein in 250 μl; Superdex 200 HR 10/30, 0.3 ml/min, 25 mM HEPES pH 7.25, 150 mM NaCl; fractions analysed by SDS-PAGE and Western blot for SP-D
# [2] = target: the molecule itself; experiment: non-reducing SDS-PAGE with Western blot; recombinant proteins denatured without thiol reductant, SDS-PAGE, Western blot with SP-D antibody; shows only oligomers that survive SDS (disulfide-linked)
# SNO-SP-D in BAL from mice overexpressing SP-D, after treatment with S-nitrosocysteine, sequence (P50404 20-374): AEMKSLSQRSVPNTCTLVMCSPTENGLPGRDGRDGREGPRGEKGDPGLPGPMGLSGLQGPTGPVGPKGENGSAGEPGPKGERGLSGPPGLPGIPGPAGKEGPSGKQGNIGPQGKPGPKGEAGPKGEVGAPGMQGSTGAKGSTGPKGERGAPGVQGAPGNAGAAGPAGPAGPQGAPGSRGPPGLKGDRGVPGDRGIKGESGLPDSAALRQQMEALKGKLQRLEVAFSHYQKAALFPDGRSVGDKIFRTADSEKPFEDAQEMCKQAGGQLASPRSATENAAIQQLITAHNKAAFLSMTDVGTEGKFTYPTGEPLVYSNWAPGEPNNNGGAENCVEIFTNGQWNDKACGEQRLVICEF
stoichiometry N [1],Molecule,stoichiometry N [2]
3,"SNO-SP-D in BAL from mice overexpressing SP-D, after treatment with S-nitrosocysteine (from UniProt P50404 20-374) (natural protein)",
,"rat recombinant SP-D (surfactant protein D) (natural protein, UniProt P35248 20-374, looked up, surfactant protein D (SP-D), rat, recombinant; It has the N-terminal cysteines 15 and 20 and the head domain, so it is probably the whole mature chain; also called rSP-D; RrSP-D; source: recombinant) AEMKTLSQRSITNTCTLVLCSPTENGLPGRDGRDGREGPRGEKGDPGLPGPMGLSGLPGPRGPVGPKGENGSAGEPGPKGERGLVGPPGSPGISGPAGKEGPSGKQGNIGPQGKPGPKGEAGPKGEVGAPGMQGSAGAKGPAGPKGERGAPGEQGAPGNAGAAGPAGPAGPQGAPGSRGPPGLKGDRGAPGDRGIKGESGLPDSAALRQQMEALNGKLQRLEAAFSRYKKAALFPDGQSVGDKIFRAANSEEPFEDAKEMCRQAGGQLASPRSATENAAVQQLVTAHSKAAFLSMTDVGTEGKFTYPTGEALVYSNWAPGEPNNNGGAENCVEIFTNGQWNDKACGEQRLVICEF",3
